# Positions count from the first letter of the chain named.
# T1: soluble LGR5-Fc fusion protein (human, UniProt O75473 22-564)
# T1 construct: range 22-564; Expressed in insect cells with baculovirus, purified on protein A; not shown: human Fc
# T1 sequence (looked up): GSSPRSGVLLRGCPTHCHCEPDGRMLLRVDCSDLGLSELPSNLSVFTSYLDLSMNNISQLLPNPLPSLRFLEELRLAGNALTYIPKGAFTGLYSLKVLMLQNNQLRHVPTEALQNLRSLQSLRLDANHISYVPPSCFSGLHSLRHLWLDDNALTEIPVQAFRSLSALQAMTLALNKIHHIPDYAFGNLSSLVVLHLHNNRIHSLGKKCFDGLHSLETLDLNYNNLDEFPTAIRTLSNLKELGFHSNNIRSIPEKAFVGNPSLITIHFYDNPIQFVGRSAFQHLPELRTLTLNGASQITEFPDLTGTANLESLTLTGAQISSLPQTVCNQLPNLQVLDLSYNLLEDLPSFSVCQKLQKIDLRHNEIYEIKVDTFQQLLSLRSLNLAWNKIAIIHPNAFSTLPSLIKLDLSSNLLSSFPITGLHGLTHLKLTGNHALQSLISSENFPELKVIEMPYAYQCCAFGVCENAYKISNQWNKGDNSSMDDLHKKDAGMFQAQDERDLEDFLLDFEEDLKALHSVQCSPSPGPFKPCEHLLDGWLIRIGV
# B1: anti-RSPO1 monoclonal antibody 89M5 (hybridoma ATCC PTA-11970) (antibody, mouse IgG1, kappa, V domains shown)
# VH: EVQLQQSGPELVKPGASVKISCKTSGYTFTGYTMHWVRQSHGKTLEWIGGINPNNGGTTYNQNFKGKATLTVEKSSTTAYLELRSLTSEDSALYYCARKEFSDGYYFFAYWGQGTLVTVSS
# VL: DIVMTQSHKFMSTSVGDRVNITCKASQDVIFAVAWYQQKPGQSPKLLIYWASTRHTGVPDRFTGSVSGTDYTLTISSVQAEDLALYYCQQHYSTPWTFGGGTKLEIKR
# notes: Murine monoclonal antibody; also called parental 89M5 antibody
# B2: anti-RSPO1 monoclonal antibody 89M4 (antibody, V domains shown)
# VH: B1 VH with S121A
# VL: DIVMTQSHKFMSTSVGDRVNITCKASQDVIFAVAWYQQKPGQSPKLLIYWASTRHTGVPDRFTGSVSGTDYTLTISSVQAEDLALYYCQQHYSTPWTFGGGTKLEIK
# B3: anti-RSPO1 monoclonal antibody 89M25 (antibody, V domains shown)
# VH: B1 VH with S121A
# VL: B2 VL
# B4: anti-RSPO2 monoclonal antibody 130M23 (hybridoma ATCC PTA-12021) (antibody, mouse IgG1, kappa, V domains shown)
# VH: EVKLVESGGGLVKPGGSLKFSCAASGFSFSSYAMSWVRQTPEKRLEWVASISSGGSTYYPDSVKGRFTISRDNVRNILYLQMSSLRSEDTAMYFCARGGDPGVYNGDYEDAMDYWGQGTSVTVSS
# VL: B1 VL with N20S, I30S, F31S, G64N, V66G
# notes: Murine monoclonal antibody; also called parental 130M23 antibody
# B5: humanized anti-RSPO2 antibody h130M23-H1L2 (antibody, human IgG2, kappa, V domains shown)
# VH: EVQLVESGGGLVKPGGSLRLSCAASGFTFSSYAMSWVRQAPGKGLEWVSSISSGGSTYYPDSVKGRFTISRDNAKNSLYLQMNSLRAEDTAVYYCARGGDPGVYNGDYEDAMDYWGQGTTVTVSS
# VL: DIQMTQSPSSLSASVGDRVTITCKASQDVSSAVAWYQQKPGKAPKLLIYWASTRHTGVPSRFSGSGSGTDFTLTISSVQAEDFATYYCQQHYSTPWTFGQGTKVEIKR
# notes: also called 130M23-H1 with 130M23-L2
# B6: humanized anti-RSPO2 antibody h130M23-H1L6 (antibody, human IgG2, kappa, V domains shown)
# VH: B5 VH
# VL: B5 VL with V78L, A80P
# B7: recombinant human RSPO1-Fc fusion protein (Fc fusion)
# chain: SRGIKGKRQRRISAEGSQACAKGCELCSEVNGCLKCSPKLFILLERNDIRQVGVCLPSCPPGYFDARNPDMNKCIKCKIEHCEACFSHNFCTKCKEGLYLHKGRCYPACPEGSSAANGTMECSSPAQCEMSEWSPWGPCSKKQQLCGFRRGSEERTRRVLHAPVGDHAACSDTKETRRCTVRRVPCPEGQKRRKGGQGRRENANRNLARKESKEAGAGSRRRKGQQQQQQQGTVGPLTSAGPA
# notes: not shown: human Fc region
# B8: recombinant human RSPO2-Fc fusion protein (Fc fusion)
# chain: QGNRWRRSKRASYVSNPICKGCLSCSKDNGCSRCQQKLFFFLRREGMRQYGECLHSCPSGYYGHRAPDMNRCARCRIENCDSCFSKDFCTKCKVGFYLHRGRCFDECPDGFAPLEETMECVEGCEVGHWSEWGTCSRNNRTCGFKWGLETRTRQIVKKPVKDTIPCPTIAESRRCKMTMRHCPGGKRTPKAKEKRNKKKKRKLIERAQEQHSVFLATDRANQ
# notes: not shown: human Fc region
# B9: recombinant human RSPO3-Fc fusion protein (Fc fusion)
# chain: QNASRGRRQRRMHPNVSQGCQGGCATCSDYNGCLSCKPRLFFALERIGMKQIGVCLSSCPSGYYGTRYPDINKCTKCKADCDTCFNKNFCTKCKSGFYLHLGKCLDNCPEGLEANNHTMECVSIVHCEVSEWNPWSPCTKKGKTCGFKRGTETRVREIIQHPSAKGNLCPPTNETRKCTVQRKKCQKGERGKKGRERKRKKPNKGESKEAIPDSKSLESSKEIPEQRENKQQQKKRKVQDKQKSVSVSTVH
# notes: not shown: human Fc region
# B10: recombinant human RSPO4-Fc fusion protein (Fc fusion)
# chain: LNRRKKQVGTGLGGNCTGCIICSEENGCSTCQQRLFLFIRREGIRQYGKCLHDCPPGYFGIRGQEVNRCKKCGATCESCFSQDFCIRCKRQFYLYKGKCLPTCPPGTLAHQNTRECQGECELGPWGGWSPCTHNGKTCGSAWGLESRVREAGRAGHEEAATCQVLSESRKCPIQRPCPGERSPGQKKGRKDRRPRKDRKLDRRLDVRPRQPGLQP
# notes: not shown: human Fc region
# Experiments:
# [1] = molecular target: T2, recombinant mouse RSPO1-Fc protein (mouse, UniProt Q9Z132 21-265, limits assumed); experiment: SPR (Biacore 2000), RSPO1-Fc immobilized on CM5 chip, antibody injected 100 nM to 0.78 nM
# T2 construct: Construct not described; not shown: Fc; not described
# Experimental: (§1) The KDs of antibodies 89M4, 89M5, 89M7 and 89M25 were determined using a Biacore 2000 system from Biacore LifeSciences (GE Healthcare). Recombinant human RSPO1-Fc or mouse RSPO1-Fc proteins were immobilized on CM5 chips using standard amine-based chemistry (NHS/EDC). The antibodies were serially diluted 2-fold from 100 nM to 0.78 nM in HBS-P (0.01M HEPES pH7.4, 0.15M NaCl, 0.005% v/v Surfactant P20) and were injected over the chip surface. Kinetic data were collected over time and were fit using the simultaneous global fit equation to yield affinity constants (KD values) for each antibody.
# [2] = molecular target: B7; experiment: as above
# Experimental: as §1
# [3] = molecular target: Figure 9A construct 5: furin1, furin2, cysteine (human) (UniProt Q2MKA7); experiment: FACS, HEK-293 cells transfected with the FLAG-RSPO1 portion-CD4TM construct in Figure 9A; anti-RSPO1 antibody 89M5, PE-conjugated secondary antibody
# Sequence of Figure 9A construct 5: furin1, furin2, cysteine (human) (Q2MKA7 other isoform, or with tags, fused parts or gaps): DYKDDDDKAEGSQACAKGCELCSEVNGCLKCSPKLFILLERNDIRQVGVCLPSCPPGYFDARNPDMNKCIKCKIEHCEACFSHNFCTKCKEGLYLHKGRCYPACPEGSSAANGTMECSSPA
# [4] = molecular target: Figure 9A construct 3: Positive charge, furin1, furin2, cysteine, Thrombospondin (human) (UniProt Q2MKA7); experiment: as above
# Sequence of Figure 9A construct 3: Positive charge, furin1, furin2, cysteine, Thrombospondin (human) (Q2MKA7 other isoform, or with tags, fused parts or gaps): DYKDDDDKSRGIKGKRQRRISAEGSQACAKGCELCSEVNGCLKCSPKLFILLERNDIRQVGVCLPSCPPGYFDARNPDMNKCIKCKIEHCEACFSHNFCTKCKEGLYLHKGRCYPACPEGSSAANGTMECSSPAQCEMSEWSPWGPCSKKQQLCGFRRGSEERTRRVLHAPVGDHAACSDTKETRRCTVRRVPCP
# [5] = molecular target: Figure 9A construct 1: Positive charge, furin1 (human) (UniProt Q2MKA7); experiment: as above
# Sequence of Figure 9A construct 1: Positive charge, furin1 (human) (Q2MKA7 other isoform, or with tags, fused parts or gaps): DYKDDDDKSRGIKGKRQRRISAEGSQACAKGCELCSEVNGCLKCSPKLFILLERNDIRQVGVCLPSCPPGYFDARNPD
# [6] = molecular target: Figure 9A construct 2: Positive charge, furin1, furin2 (human) (UniProt Q2MKA7); experiment: as above
# Sequence of Figure 9A construct 2: Positive charge, furin1, furin2 (human) (Q2MKA7 other isoform, or with tags, fused parts or gaps): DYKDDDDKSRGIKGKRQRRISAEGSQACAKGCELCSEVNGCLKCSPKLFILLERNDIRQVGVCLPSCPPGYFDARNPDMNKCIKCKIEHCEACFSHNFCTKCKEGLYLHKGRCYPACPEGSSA
# [7] = molecular target: Figure 9A construct 4: Positive charge, furin1, furin2, cysteine, Thrombospondin, Positive charge (human) (UniProt Q2MKA7); experiment: as above
# [8] = molecular target: B8; experiment: SPR (Biacore 2000), RSPO2-Fc immobilized on CM5 chip, antibody injected 100 nM to 0.78 nM
# Experimental: as §1, with “KD” for “KDs”, “130M23 was” for “antibodies 89M4, 89M5, 89M7 and 89M25 were”, “RSPO2-Fc” for “RSPO1-Fc”
# [9] = molecular target: T3, recombinant mouse RSPO2-Fc protein (mouse, UniProt Q8BFU0 24-243, limits assumed); experiment: as above
# T3 construct: Construct not described; not shown: Fc; not described
# T3 sequence (Q8BFU0 24-243 limits assumed): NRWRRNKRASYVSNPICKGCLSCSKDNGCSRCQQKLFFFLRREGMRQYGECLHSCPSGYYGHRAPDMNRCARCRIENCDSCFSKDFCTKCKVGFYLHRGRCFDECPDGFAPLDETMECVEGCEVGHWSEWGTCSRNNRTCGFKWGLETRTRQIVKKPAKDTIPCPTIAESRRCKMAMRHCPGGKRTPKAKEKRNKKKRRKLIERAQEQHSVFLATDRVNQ
# Experimental: as §1, with “KD” for “KDs”, “130M23 was” for “antibodies 89M4, 89M5, 89M7 and 89M25 were”, “RSPO2-Fc” for “RSPO1-Fc”
# [10] = molecular target: B8; experiment: SPR (Biacore 2000), human RSPO2-Fc immobilized on CM5 chip, antibody injected 100 nM to 0.78 nM
# Experimental: as §1, with “KD” for “KDs”, “h130M23-H1L2” for “antibodies 89M4, 89M5, 89M7”, “h130M23-H1L6” for “89M25”, “RSPO2-Fc protein was” for “RSPO1-Fc or mouse RSPO1-Fc proteins were”
# [11] = molecular target: T1, soluble LGR5-Fc fusion protein; experiment: SPR (Biacore 2000), RSPO-Fc immobilized on CM5 chip, soluble LGR5-Fc injected 100 nM to 0.78 nM
# Experimental: Binding affinities between RSPO proteins and LGR5 were analyzed by surface plasmon resonance. A soluble LGR5-Fc construct was generated using standard recombinant DNA techniques. Specifically, amino acids 1-564 of human LGR5 were ligated in frame to human Fc and the recombinant LGR5-Fc fusion protein was expressed in insect cells using baculovirus. The LGR5-Fc fusion protein was purified from the insect medium using protein A chromatography. Cleavage of the LGR5 signal sequence results in a mature LGR5-Fc fusion protein containing amino acids 22-564 of LGR5. Recombinant RSPO1-Fc, RSPO2-Fc, RSPO3-Fc and RSPO4-Fc fusion proteins were immobilized on CM5 chips using standard amine-based chemistry (NHS/EDC). Two-fold dilutions of soluble LGR5-Fc were injected over the chip surface (100 nM to 0.78 nM). Kinetic data were collected over time using a Biacore 2000 system from Biacore Life Sciences (GE Healthcare) and the data were fit using the simultaneous global fit equation to yield affinity constants (KD values) for each RSPO protein (Table 3).
Kd [1],Kd [2],Kd [11],other results,Binder
< 0.1 nM,< 0.1 nM,,MFI [3]: 406; MFI [4]: 20.1; MFI [5]: 5.42; MFI [6]: 15.5; MFI [7]: 10.3,B1
< 0.1 nM,< 0.1 nM,,,B2
< 0.1 nM,< 0.1 nM,,,B3
,,,Kd [8]: 0.14 nM; Kd [9]: 0.35 nM,B4
,,,Kd [10]: 0.13 nM,B5
,,,Kd [10]: 0.15 nM,B6
,,110 nM,,B7
,,14 nM,,B8
,,< 1 nM,,B9
,,73 nM,,B10

# Source: patent US20160002344A1 (ONCOMED PHARMACEUTICALS, published 2016)
